By Kd is commonly meant the free concentration of one partner at which half of the binding sites on the other are occupied at equilibrium, for simple one-to-one binding.

The chains are these.
B1: KCD002 (antibody, V domains shown)
VH: EVKLVESEGGLVQPGSSMKLSCTASGFTFSDYYMAWVRQVPEKGLEWVGNINYDGSSTYYLDSLKSRFIISRDSAKNILYLQMSSLKSEDTATYFCARGEDFYLYAMDYWGQGTSVTVSS
VL: DIQMTQSPASLSASVGETVTITCRASENIHSYLAWYQQKQGKSPQLIVYNTKTLAEGVPSRFSGSGSGTQFSLKINSLQPEDFGSYYCQHHYGIPPTFGGGTKLEIK
notes: chimeric
B2: KCD102 (antibody, V domains shown)
VH: QVQLQQPGAELVRPGTSVKLSCKASGYTFTSYWMHWVKQRPGQGLEWIGVIDPSDSYTNYNQKFKGKATLTVDTSSSTAYMQLSSLTSEDSAVYYCARNGYDGSMDYWGQGTSVTVSS
VL: EIQMTQTTSSLSASLGDRVTISCRASQDISNYLNWYQQKPDGTVKLLIYYPSRLHSGVPSRFSGSGSGTDYSLTISNLEQEDFATYFCQQGNTLPYTFGGGTKLEIK
notes: chimeric
B3: KCD103 (antibody, V domains shown)
VH: B2 VH with N59K, G66D, D73E, R98G
VL: B2 VL with E1D, Y32S, P51T, G57R, E79D, F83I, G91A
notes: chimeric
B4: KCD104 (antibody, V domains shown)
VH: B2 VH with N59Y, S104A
VL: B2 VL
notes: chimeric
B5: KCD101 (antibody, V domains shown)
VH: B2 VH with A97G
VL: B2 VL with E1D
notes: chimeric
B6: KCD220 (antibody, V domains shown)
VH: QVQLQQSGAELMEPGASVKLSCKATGYTFTGYWIEWVKQRPGHGLEWIGETLPGSDSNNYNEKFKGKATFTADTSSNTAYMQLSSLTTEDSAIYYCARDYSNYWYFDVWGTGTTVTVSS
VL: DIQMTQTTSSLSASLGDRVTISCRASQDISNYLNWYQQKPDGTVKLLIYYTSNLHSGVPSRFSGSGSGTDYSLTISNLEQEDIATYFCQQDSKHRTFGGGTKLEIK
notes: chimeric
B7: KCD131 (antibody, V domains shown)
VH: QVQLQQSGPELVKPGASVKISCKASAYTFTDYYINWVKQRPGQGPEWIGWIFPGSNSTYSNEKFEVKATLTVDESSSTAYMLLSSLTSEDSAVYFCARLGYFGSSYHALDYWGQGTSVTVSS
VL: DIQMTQSPASLSVSVGETVTITCRASENIYSHLAWFQQKQGKSPRLLVYSATNLPDGVPSRFSGSGSGTQYSLKINILQSEDFGSYYCQHFWGTPWTFGGGTKLEIK
notes: chimeric
B8: KCD044 (antibody, V domains shown)
VH: EVQLQQSGAELVKPGASVRLSCTASGFNIKHTYMHWVSQRPERGLEWIGKIDPANGNTKYDPKFQGKATITADTSSNTVYLQLSSLTSEDTAVYYCLNAMEYWGQGTSVTVSS
VL: QSVLTQSPAIMSASPGEKVTMTCSANSSVSDMYWYQQRPGSSPRLLIYDTSNLASGVPVRFSGSGSGTSYSLTISRMEAEDAATYYCQQWSTYPWTFGGGTKLEIK
notes: chimeric
B9: KCD040 (antibody, V domains shown)
VH: EVQLQQSGAELVKPGASVKLSCTASDFNIKDTYMHWVMQRPEQGLEWIGKIDPANGNTEFDPKFQGKATITADTSSNTAYLQLTSLTSEDTAVYYCTRAMDYWGQGTSVTVSS
VL: B8 VL with S2I, N26G, D31Y, R38K, L45V, T92N, W95Y
notes: chimeric
B10: KCD136 (antibody, V domains shown)
VH: EVQLQQSVAELVRPGASVKLSCSASGFNIKNTYMHWVNQRPEQGLEWIGRIDPANGITKYAPNFQGKATITADTSSNTAYLQLSNLTSEDTAIYYCTRAMDYWGQGTSVTVSS
VL: B8 VL with S2I, N26S, D31Y, R38K, T50I, S91D
notes: chimeric
B11: KCD047 (antibody, V domains shown)
VH: EVQLQQSGAEFVKPGASVRLSCTASGFNIKDTYMHWVKQRPEQGLEWIGRIDPANGYTKDDPKFQGKATITADTSSNTAYLQLSSLTSEDTAVYYCASAMDYWGQGTSVTVSS
VL: B8 VL with S2I, I10V, T20A, N26S, S30T, D31Y, R38K, W95F, T96P, G99S
notes: chimeric
B12: KCD224 (antibody, V domains shown)
VH: QVQLKESGPGLVAPSQSLSITCTVSGFSLTSYGVDWIRQSPGKGLEWLGVIWGVGSTNYNSALKSRLSISKDNSKSQVFLKMNSLQTDDTAMYYCARSYDGSYWYFDVWGTGTTVTVSS
VL: B2 VL with E1D, D28V, P51T, Q80P, F83I, F87Y, G91Y, N92S, T93K, G100S
notes: chimeric
B13: KCD208 (antibody, V domains shown)
VH: EVQLQQSVAELVRPGASVKLSCTVSGFNIKNTYMHWVKQRPEQGLEWIGRIDPANGDTTYAPKFQGKATITADTSSNSAYLHLSRLTSEDTAIYYCSLYDYDGYWGQGTTLTVSS
VL: EIVLTQSPALMAASPGEKVTITCSVSSSISSSSLHWYRQKSGTSPKPWIYGTSHLASGVPVRFSGSGSGTSYSLTISSMEAEDAATYYCQQWDTYPWTFGGGTKLEIK
notes: chimeric
B14: KCD214 (antibody, V domains shown)
VH: B13 VH with L11F, V24A, D57N, T59E, S78T, H82Q, R85S, S97A
VL: B13 VL with S24R, R38Q, H54N, G67R, D93S, T94D
notes: chimeric

Substitutions are numbered along the chain they refer to.

T4 sequence (P00746 26-253): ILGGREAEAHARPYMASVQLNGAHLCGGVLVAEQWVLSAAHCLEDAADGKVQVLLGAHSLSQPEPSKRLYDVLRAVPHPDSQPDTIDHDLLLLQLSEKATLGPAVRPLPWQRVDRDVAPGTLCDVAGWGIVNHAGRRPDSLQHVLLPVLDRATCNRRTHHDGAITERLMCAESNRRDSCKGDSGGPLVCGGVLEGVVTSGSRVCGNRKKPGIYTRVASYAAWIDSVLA
T3 sequence (P00746 26-253 limits assumed): as the sequence (P00746 26-253) above
T1 sequence (P00746 26-253 R182A/R232A limits assumed): as the sequence (P00746 26-253) above, with R157A, R207A counted along it

The first assay has as its target T1, recombinant human CFD mutant 1 (R157A, R207A), His-tagged (human, UniProt P00746 26-253).
T1 construct: positions are linear positions in the mature protein; also called rhCFD-mut1-His; Mut1
Briefly: ELISA.
In the case of B1, the “Mut1 Binding (% wt)” value was determined as 71.2 % wt.

Regarding B2, the “Mut1 Binding (% wt)” value was 64.3 % wt.

For the molecule B3, the “Mut1 Binding (% wt)” value was determined as 65.2 % wt.

In the case of B4, the “Mut1 Binding (% wt)” value came to 68.3 % wt.

As for B5, the “Mut1 Binding (% wt)” value is 65.8 % wt.

In the case of B6, the “Mut1 Binding (% wt)” value was determined as 74.1 % wt.

As to B7, the “Mut1 Binding (% wt)” value was 80.7 % wt.

A further assay has as its target T2, recombinant cynomolgus CFD, His-tagged (cynomolgus).
T2 construct: also called rcyCFD-His; recombinant Cyno-CFD
Briefly: SPR MX96.
With B8, the Kd was found to be 6 nM.

As for B9, the dissociation constant Kd was 170 nM.

With B10, the dissociation constant (Kd) turned out to be 27 nM.

On to B11, for which the dissociation constant Kd worked out at 160 nM.

As for B1, the equilibrium dissociation constant (Kd) amounted to 0.41 nM.

Take B12: the equilibrium dissociation constant (Kd) came to 100 nM.

On to B2, for which the Kd was found to be 230 nM.

In the case of B3, the Kd was determined as 63 nM.

B4: the Kd came out at 72 nM.

B5: the Kd came out at 240 nM.

As for B13, the dissociation constant Kd is 52 nM.

B14: the Kd stood at 26 nM.

Consider B6, for which the Kd is 0.28 nM.

Regarding B7, the dissociation constant (Kd) came out at 0.99 nM.

A further assay concerns the target T3, recombinant human CFD, His-tagged (human, UniProt P00746 26-253).
T3 construct: also called rhCFD-His
Briefly: SPR MX96.
Take B8: the Kd came to 1.8 nM.

Take B9: the Kd turned out to be 1.4 nM.

For the molecule B10, the equilibrium dissociation constant (Kd) is 3.4 nM.

On to B11, for which the Kd worked out at 3.4 nM.

As to B1, the dissociation constant (Kd) came out at 0.11 nM.

B12: the equilibrium dissociation constant (Kd) turned out to be 0.54 nM.

In the case of B2, the dissociation constant (Kd) worked out at 2.5 nM.

Consider B3, for which the dissociation constant (Kd) was 3.1 nM.

With B4, the Kd amounted to 1.2 nM.

For the molecule B5, the Kd turned out to be 2.7 nM.

For the molecule B13, the dissociation constant Kd was 1.9 nM.

Take B14: the equilibrium dissociation constant (Kd) worked out at 1.1 nM.

Take B6: the Kd was 0.074 nM.

Consider B7, for which the Kd was 0.047 nM.

The next assay has as its target T4, human complement factor D purified from serum (human, UniProt P00746 26-253).
T4 construct: serum-purified (CompTech); also called hCFD-Comptech; CFD
Briefly: SPR MX96.
Molecule B8 returned a Kd of 2.6 nM.

B9 yielded a Kd of 1.9 nM.

Take B10: binding was characterised by a dissociation constant (Kd) of 4.5 nM.

B11 had a Kd of 4.4 nM.

In turn, B1 came in with a dissociation constant (Kd) of 0.13 nM.

Molecule B12 showed a Kd of 1.2 nM.

For B2, binding was characterised by a dissociation constant (Kd) of 3.6 nM.

As to B3, the dissociation constant Kd was 4.4 nM.

In turn, B4 registered a dissociation constant Kd of 1.6 nM.

As for B5, binding was put at a Kd of 3.8 nM.

For the molecule B13, the dissociation constant Kd was found to be 2.5 nM.

For B14, the Kd amounted to 1.6 nM.

For B6, the dissociation constant (Kd) was found to be 0.054 nM.

As for B7, the affinity, expressed as Kd, was 0.14 nM.

A further assay addresses T1, recombinant human CFD mutant 1 (R157A, …). Briefly: SPR MX96.
On to B8, for which the dissociation constant (Kd) came out at 0.96 nM.

B9: the Kd was 0.75 nM.

Turning to B10, the Kd stood at 1.4 nM.

Regarding B11, the Kd worked out at 2.9 nM.

With B1, the dissociation constant Kd came out at 0.08 nM.

As to B12, the dissociation constant (Kd) worked out at 1.1 nM.

As for B2, the Kd is 2.5 nM.

For B3, the Kd came to 2.5 nM.

Regarding B4, the Kd was 0.82 nM.

As to B5, the Kd amounted to 2.8 nM.

Turning to B13, the dissociation constant (Kd) amounted to 1.8 nM.

On to B14, for which the dissociation constant Kd stood at 1.3 nM.

In the case of B6, the equilibrium dissociation constant (Kd) came out at 0.029 nM.

Turning to B7, the Kd worked out at 0.045 nM.

A further assay has the same target. Briefly: ELISA. This is another data set of the same source.
Consider B8, for which the “Mut1 Binding (% wt)” value was 62.5 % wt.

Turning to B9, the “Mut1 Binding (% wt)” value came out at 62.2 % wt.

For the molecule B10, the “Mut1 Binding (% wt)” value came out at 78.3 % wt.

Consider B11, for which the “Mut1 Binding (% wt)” value was found to be 58.9 % wt.

Take B12: the “Mut1 Binding (% wt)” value is 121 % wt.

With B13, the “Mut1 Binding (% wt)” value turned out to be 56.7 % wt.

Turning to B14, the “Mut1 Binding (% wt)” value was 44.3 % wt.

The next assay deals with T4, human complement factor D purified from ….
Assay: not given
As for B8, the Kd is 1.02 nM.

Molecule B9 showed a Kd of 79.1 nM.

As to B10, the affinity, expressed as Kd, was 0.587 nM.

Molecule B11 returned a Kd of 6.62 nM.

Molecule B12 gave a Kd of 0.0156 nM.

Molecule B13 yielded a Kd of 0.451 nM.

Take B14: the Kd was found to be 0.245 nM.

For another assay the target is unchanged. Briefly: cell-based or functional assay.
For the molecule B8, the “CFD Enzymatic activity (% of Neg Ctrl)” value was 8.8 % of Neg Ctrl.

As for B9, the “CFD Enzymatic activity (% of Neg Ctrl)” value is 13.7 % of Neg Ctrl.

Take B10: the “CFD Enzymatic activity (% of Neg Ctrl)” value was 11.8 % of Neg Ctrl.

With B11, the “CFD Enzymatic activity (% of Neg Ctrl)” value was 47.3 % of Neg Ctrl.

With B12, the “CFD Enzymatic activity (% of Neg Ctrl)” value is 36.3 % of Neg Ctrl.

As for B13, the “CFD Enzymatic activity (% of Neg Ctrl)” value was 0 % of Neg Ctrl.

Turning to B14, the “CFD Enzymatic activity (% of Neg Ctrl)” value is 12.8 % of Neg Ctrl.

A further assay has the same target.
Assay: not given
This is another data set of the same source.
On to B1, for which the Kd was 0.0307 nM.

B2 returned an equilibrium dissociation constant (Kd) of 6.98 nM.

Molecule B3 displayed a Kd of 1.48 nM.

With B4, the affinity, expressed as Kd, was 1.32 nM.

Molecule B5 came in with a Kd of 1.45 nM.

With B6, the Kd stood at 0.0639 nM.

In turn, B7 gave a dissociation constant Kd of 0.0342 nM.

The target is the same in the next assay. Briefly: cell-based or functional assay. This is another data set of the same source.
In the case of B1, the “CFD Enzymatic activity (% of Neg Ctrl)” value was 144 % of Neg Ctrl.

With B2, the “CFD Enzymatic activity (% of Neg Ctrl)” value is 92.3 % of Neg Ctrl.

Take B3: the “CFD Enzymatic activity (% of Neg Ctrl)” value was 126 % of Neg Ctrl.

Take B4: the “CFD Enzymatic activity (% of Neg Ctrl)” value is 92.3 % of Neg Ctrl.

Take B5: the “CFD Enzymatic activity (% of Neg Ctrl)” value was 93.2 % of Neg Ctrl.

For the molecule B6, the “CFD Enzymatic activity (% of Neg Ctrl)” value is 88.1 % of Neg Ctrl.

Regarding B7, the “CFD Enzymatic activity (% of Neg Ctrl)” value is 65.9 % of Neg Ctrl.

Values taken from US20180334496A1 (KODIAK SCIENCES, published 2018).
